Test results from patent US20190010493A1 (published 2019).

T1: full-length mAKAPβ protein with an internal deletion of residues 1257 to 1886 (rat) (UniProt Q9WVC7)
T1 sequence: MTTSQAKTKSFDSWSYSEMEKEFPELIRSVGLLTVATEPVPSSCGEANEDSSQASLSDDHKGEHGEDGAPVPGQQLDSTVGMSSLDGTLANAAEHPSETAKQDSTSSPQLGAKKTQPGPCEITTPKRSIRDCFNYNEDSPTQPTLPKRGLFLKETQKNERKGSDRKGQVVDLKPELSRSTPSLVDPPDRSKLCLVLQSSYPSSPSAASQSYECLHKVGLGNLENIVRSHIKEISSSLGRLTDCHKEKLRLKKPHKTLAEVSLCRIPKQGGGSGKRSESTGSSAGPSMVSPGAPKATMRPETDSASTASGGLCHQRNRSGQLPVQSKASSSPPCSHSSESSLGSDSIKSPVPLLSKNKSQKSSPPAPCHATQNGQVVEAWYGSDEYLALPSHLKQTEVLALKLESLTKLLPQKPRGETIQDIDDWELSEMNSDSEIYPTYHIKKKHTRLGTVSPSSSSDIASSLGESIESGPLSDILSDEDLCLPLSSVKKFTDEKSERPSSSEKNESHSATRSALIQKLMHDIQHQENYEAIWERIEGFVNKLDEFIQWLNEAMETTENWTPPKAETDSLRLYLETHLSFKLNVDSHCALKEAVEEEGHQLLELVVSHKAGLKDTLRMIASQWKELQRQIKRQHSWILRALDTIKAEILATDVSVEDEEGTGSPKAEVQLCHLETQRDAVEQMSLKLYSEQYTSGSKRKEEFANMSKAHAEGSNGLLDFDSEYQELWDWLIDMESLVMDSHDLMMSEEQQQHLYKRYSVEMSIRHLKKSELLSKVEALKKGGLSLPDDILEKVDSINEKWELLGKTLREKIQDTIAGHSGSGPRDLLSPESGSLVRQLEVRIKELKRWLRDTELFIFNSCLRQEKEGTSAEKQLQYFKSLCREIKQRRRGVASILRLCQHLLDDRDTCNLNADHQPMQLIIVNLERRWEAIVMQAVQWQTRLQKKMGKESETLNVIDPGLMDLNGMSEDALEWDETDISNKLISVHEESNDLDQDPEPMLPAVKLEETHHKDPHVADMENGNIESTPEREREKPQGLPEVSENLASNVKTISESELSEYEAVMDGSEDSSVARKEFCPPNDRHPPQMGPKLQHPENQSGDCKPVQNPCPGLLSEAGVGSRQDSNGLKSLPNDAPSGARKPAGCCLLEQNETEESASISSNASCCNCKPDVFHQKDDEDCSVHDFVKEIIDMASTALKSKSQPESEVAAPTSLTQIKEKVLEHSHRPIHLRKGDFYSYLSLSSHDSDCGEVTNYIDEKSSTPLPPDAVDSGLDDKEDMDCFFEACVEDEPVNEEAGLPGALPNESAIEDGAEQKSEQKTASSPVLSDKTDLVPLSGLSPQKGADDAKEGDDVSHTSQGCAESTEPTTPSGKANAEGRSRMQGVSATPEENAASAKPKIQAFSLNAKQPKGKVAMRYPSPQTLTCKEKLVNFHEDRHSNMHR

T2: bacterially expressed His-tagged mAKAP 1286 to 1833 (rat, UniProt Q9WVC7 1286-1833)
T2 construct: Covalently immobilised by amine coupling on a CM5 chip, 200 resonance units; not shown: His tag (pET30-based vector)
T2 sequence: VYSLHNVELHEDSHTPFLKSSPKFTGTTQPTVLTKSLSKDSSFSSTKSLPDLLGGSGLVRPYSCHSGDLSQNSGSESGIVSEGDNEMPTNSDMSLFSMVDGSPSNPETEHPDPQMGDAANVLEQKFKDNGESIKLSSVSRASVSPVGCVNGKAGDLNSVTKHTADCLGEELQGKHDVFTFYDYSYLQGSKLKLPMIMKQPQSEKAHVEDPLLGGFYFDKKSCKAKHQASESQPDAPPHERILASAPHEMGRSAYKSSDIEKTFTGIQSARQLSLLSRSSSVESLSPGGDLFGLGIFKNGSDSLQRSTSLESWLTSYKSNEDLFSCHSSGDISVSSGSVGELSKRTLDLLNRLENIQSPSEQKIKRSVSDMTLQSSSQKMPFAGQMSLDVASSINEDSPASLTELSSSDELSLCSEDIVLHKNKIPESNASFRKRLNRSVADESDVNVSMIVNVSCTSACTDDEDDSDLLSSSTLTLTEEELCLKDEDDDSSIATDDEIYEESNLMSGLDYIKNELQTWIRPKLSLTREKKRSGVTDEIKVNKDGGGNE

B1: His-RSK3 phosphorylated by ERK (enzyme)
chain: MDLSMKKFAVRRFFSVYLRRKSRSKSSSLSRLEEEGVVKEIDISHHVKEGFEKADPSQFELLKVLGQGSYGKVFLVRKVKGSDAGQLYAMKVLKKATLKVRDRVRSKMERDILAEVNHPFIVKLHYAFQTEGKLYLILDFLRGGDLFTRLSKEVMFTEEDVKFYLAELALALDHLHSLGIIYRDLKPENILLDEEGHIKITDFGLSKEAIDHDKRAYSFCGTIEYMAPEVVNRRGHTQSADWWSFGVLMFEMLTGSLPFQGKDRKETMALILKAKLGMPQFLSGEAQSLLRALFKRNPCNRLGAGIDGVEEIKRHPFFVTIDWNTLYRKEIKPPFKPAVGRPEDTFHFDPEFTARTPTDSPGVPPSANAHHLFRGFSFVASSLIQEPSQQDLHKVPVHPIVQQLHGNNIHFTDGYEIKEDIGVGSYSVCKRCVHKATDTEYAVKIIDKSKRDPSEEIEILLRYGQHPNIITLKDVYDDGKFVYLVMELMRGGELLDRILRQRYFSEREASDVLCTITKTMDYLHSQGVVHRDLKPSNILYRDESGSPESIRVCDFGFAKQLRAGNGLLMTPCYTANFVAPEVLKRQGYDAACDIWSLGILLYTMLAGFTPFANGPDDTPEEILARIGSGKYALSGGNWDSISDAAKDVVSKMLHVDPHQRLTAMQVLKHPWVVNREYLSPNQLSRQDVHLVKGAMAATYFALNRTPQAPRLEPVLSSNLAQRRGMKRLTSTRL
modifications: phosphorylated in vitro with ERK2; sites on this protein not stated here (S360 is named as the ERK site of HA-RSK3 in paragraph 123)
notes: also called Phospho-His-RSK3 (ERK2); not shown: His tag
B2: His-RSK3 phosphorylated by both ERK and PDK1 (enzyme)
chain: B1 chain
modifications: phosphorylated in vitro with ERK2 and PDK1; sites on this protein not stated here (S360 ERK site and S218 PDK1 site are named for HA-RSK3 in paragraph 123)
notes: also called Phospho-His-RSK3 (ERK2 and PDK1); not shown: His tag
B3: mAKAP RSK binding domain (RBD), mAKAP residues 1694 to 1833 (other, not shown: small tags and cut ends)
chain: ELSLCSEDIVLHKNKIPESNASFRKRLNRSVADESDVNVSMIVNVSCTSACTDDEDDSDLLSSSTLTLTEEELCLKDEDDDSSIATDDEIYEESNLMSGLDYIKNELQTWIRPKLSLTREKKRSGVTDEIKVNKDGGGNE
notes: also called mAKAP RBD

Key:
[1] = molecular target: T1, full-length mAKAPβ protein with an internal deletion of residues 1257 to 1886 (rat); assay: co-immunoprecipitation, heterologous cells
[2] = molecular target: T2, bacterially expressed His-tagged mAKAP …; assay: SPR (BIAcore T100), His-mAKAP 1286-1833 immobilised, phospho-His-RSK3 analyte
Description: The inventors next tested whether mAKAP-RSK3 binding is direct (FIG. 7G of U.S. Pat. No. 9,132,174). […] The binding was direct and of high affinity (nanomolar KD). The inventors previously reported that once activated, RSK3 binds mAKAPα less well in cells (Michele 2005).
Surface Plasmon Resonance: SPR analysis was performed using a BIAcore T100. […] (Biacore amine coupling kit) to the surface of a sensor chip (BIAcore type CM5). His-RSK3 analytes (6.25-200 nmol/L) in HBS buffer (10 mmol/L Hepes, pH 7.4, 150 mmol/L NaCl, and 0.005% Surfactant P20) were injected at a flow rate of 30 μL/min for 5 minutes, followed by buffer alone for another 5 minutes. Sensorgrams were processed by BIAcore T100 evaluation software.

[3] = molecular target: T3, N-terminally truncated RSK3 mutant (HA-RSK3 DN30) (human, UniProt Q15349 31-733); assay: co-immunoprecipitation in heterologous cells
T3 construct: The range 31-733 is inferred from the label 'DN30'; not shown: hemagglutinin (HA) tag
From the text: To address this hypothesis, the inventors defined the mAKAP domains responsible for RSK3 binding. HA-tagged RSK3 was co-expressed in heterologous cells with myc-tagged mAKAPβ fragments and coimmunoprecipitated using a myc-tag antibody (FIGS. 7A and 7B of U.S. Pat. No. 9,132,174). […] As shown, the unique N-terminal domain of RSK3 bound full-length mAKAPβ (FIG. 4D of U.S. Pat. No. 9,132,174). The mAKAP RBD also bound HA-RSK3 1 to 42 (FIG. 7E of U.S. Pat. No. 9,132,174), but not to the N-terminally truncated RSK3 mutant (HA-RSK3 DN30) or the HA-tagged full-length RSK2 (FIG. 7F of U.S. Pat. No. 9,132,174).
Immunoprecipitations: HEK293 and COS-7 cells were transfected with Lipofectamine 2000 (Invitrogen) or Polyethylenimine “Max” (Polysciences). Cells (including myocytes) were lysed in buffer (20 mmol/L HEPES, pH 7.4, 150 mmol/L NaCl, 5 mmol/L EDTA, 0.5% Triton, 50 mmol/L NaF, 1 mmol/L sodium orthovanadate, 1 mmol/L DTT, and protease inhibitors). After centrifugation at 10,000×g for 10 minutes at 4° C., the clarified extracts were used for immunoprecipitation using appropriate antibodies (10 μg purified antibody or 1-5 μL whole serum) and 20 μL protein G sepharose (Millipore, Fastflow) for 3 hours to overnight at 4° C. The beads were washed 3-5 times with lysis buffer, and the immunoprecipitated proteins were eluted with 1× Laemmli buffer for western blotting. […]

Molecule	fold decrease of binding affinity against unphosphorylated RSK3 [2]	also measured
HA-tagged RSK3 (type 3 p90 ribosomal S6 kinase) (from UniProt Q15349 1-733) (enzyme)	–	reduction of binding against full-length mAKAPβ [1]: > 85%
B1	5 fold	–
B2	8 fold	–
B3	–	binding result [3]: no binding
